EC50, IC50, inhibition of IL-8 secretion, HT-29 + EL4-NC-LIGHT cells and % of WT binding data for 13 molecules are collected here from patent US20210284747A1.

The target in test [1] is Human LIGHT stably expressed on EL4 cells (EL4-LIGHT) (human) (UniProt O43557). As to the kind of experiment: flow cytometry, EL4-LIGHT cells.
Test [2] concerns the target LIGHT without residues 81-84, stably expressed on EL4 cells (EL4-NC-LIGHT). The test is described as follows: cell-based or functional assay.
Test [3] concerns the target Wild type full length LIGHT on HEK293FF cells (alanine scanning control) (UniProt O43557). As to the kind of experiment: flow cytometry, HEK293FF, mAb at EC50. (In flow cytometry, cells or beads pass a laser one at a time.)

Sequence of Human LIGHT stably expressed on EL4 cells (EL4-LIGHT) (human) (O43557 whole entry, the tested form may be a part): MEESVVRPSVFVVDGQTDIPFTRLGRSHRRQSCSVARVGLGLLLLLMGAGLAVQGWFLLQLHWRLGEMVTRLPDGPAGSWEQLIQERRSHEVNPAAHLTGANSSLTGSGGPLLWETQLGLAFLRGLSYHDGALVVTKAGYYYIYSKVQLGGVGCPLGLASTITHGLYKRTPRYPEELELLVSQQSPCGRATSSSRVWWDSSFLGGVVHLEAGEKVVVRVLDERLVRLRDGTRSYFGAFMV

B1: 3B04_var13 (antibody, V domains shown)
VH: QVQLVQSGAEVKKPGASVKVSCKASGYTFTDYEMHWVRQAPGQGLEWIGEIDPETGDTAYSQKFKGRATLTADKSTSTAYMEFSSLRSEDTAVYYCSRETDYFFDYWGQGTLVTVSS
VL: DIQMTQSPSSLSASVGDRVTITCRASENIYGALNWYQQKPGKAPKLLIYGATNLAEGVPSRFSGSGSGRDYTLTISSLQPEDFATYYCQNVLTTPWTFGQGTKLEIKR
Take B1: in test [1], the EC50 worked out at 0.32 nM. Also, the IC50, inhibition of IL-8 secretion, HT-29 + EL4-NC-LIGHT cells in test [2] amounted to 0.04 nM.

B2: 3D12_var14 (antibody, V domains shown)
VH: QVQLVQSGAEVKKPGASVKVSCKASDYTFTDSEIHWVRQAPGQGLEWIGEIDPETGGTAYNQKFQGRVTLTADKSTSTAYMELSSLRSEDTAVYYCSRETDYFFDYWGQGTLVTVSS
VL: DIQMTQSPSSLSASVGDRVTITCRASENIYGALNWYQQKPGKAPKLLIYGATNLAEGVPSRFSGSGSGRDYTLTISSLQPEDVATYYCQNVLSTPWTFGQGTKLEIKR
Regarding B2, the half-maximal effective concentration (EC50) in test [1] came to 0.23 nM. Further, the IC50, inhibition of IL-8 secretion, HT-29 + EL4-NC-LIGHT cells in test [2] turned out to be 0.45 nM.

B3: 3D12_var13 (antibody, V domains shown)
VH: QVQLVQSGAEVKKPGASVKVSCKASDYTFTDSEIHWVRQAPGQGLEWIGEIDPETGGTAYNQKFKGRATLTADKSTSTAYMELSSLRSEDTAVYYCSRETDYFFDYWGQGTLVTVSS
VL: DIQMTQSPSSLSASVGDRVTITCRASENIYGALNWYQQKPGKAPKLLIYGATNLAEGVPSRFSGSGSGRDYTLTISSLQPEDVATYYCQNVLSTPWTFGQGTKLEIKR
In test [1], B3 yielded an EC50 of 0.24 nM. In addition, in test [2], the IC50, inhibition of IL-8 secretion, HT-29 + EL4-NC-LIGHT cells turned out to be 0.45 nM.

B4: 3D12_var16 (antibody, V domains shown)
VH: QVQLVQSGAEVKKPGASVKVSCKASGYTFTDSEMHWVRQAPGQGLEWMGEIDPETGGTAYAQKFQGRVTLTADKSTSTAYMELSSLRSEDTAVYYCSRETDYFFDYWGQGTLVTVSS
VL: DIQMTQSPSSLSASVGDRVTITCRASENIYGALNWYQQKPGKAPKLLIYGATNLAEGVPSRFSGSGSGRDYTLTISSLQPEDVATYYCQNVLSTPWTFGQGTKLEIKR
In test [1], B4 showed an EC50 of 0.26 nM. The IC50, inhibition of IL-8 secretion, HT-29 + EL4-NC-LIGHT cells in test [2] was found to be 0.52 nM.

B5: 3B04_var16 (antibody, V domains shown)
VH: QVQLVQSGAEVKKPGASVKVSCKASGYTFTDYEMHWVRQAPGQGLEWMGEIDPETGDTAYAQKFQGRVTLTADKSTSTAYMELSSLRSEDTAVYYCSRETDYFFDYWGQGTLVTVSS
VL: DIQMTQSPSSLSASVGDRVTITCRASENIYGALNWYQQKPGKAPKLLIYGATNLAEGVPSRFSGSGSGRDYTLTISSLQPEDFATYYCQNVLTTPWTFGQGTKLEIKR
As for B5, the EC50 in test [1] was 0.24 nM. In addition, the IC50, inhibition of IL-8 secretion, HT-29 + EL4-NC-LIGHT cells in test [2] worked out at 0.1 nM.

B6: 3D12_var15 (antibody, V domains shown)
VH: QVQLVQSGAEVKKPGASVKVSCKASDYTFTDSEIHWVRQAPGQGLEWMGEIDPETGGTAYAQKFQGRVTLTADKSTSTAYMELSSLRSEDTAVYYCSRETDYFFDYWGQGTLVTVSS
VL: DIQMTQSPSSLSASVGDRVTITCRASENIYGALNWYQQKPGKAPKLLIYGATNLAEGVPSRFSGSGSGRDYTLTISSLQPEDVATYYCQNVLSTPWTFGQGTKLEIKR
In test [1], B6 came in with an EC50 of 0.22 nM. Moreover, in test [2], the IC50, inhibition of IL-8 secretion, HT-29 + EL4-NC-LIGHT cells was 0.38 nM.

B7: 3B04_var14 (antibody, V domains shown)
VH: QVQLVQSGAEVKKPGASVKVSCKASGYTFTDYEMHWVRQAPGQGLEWIGEIDPETGDTAYSQKFQGRVTLTADKSTSTAYMEFSSLRSEDTAVYYCSRETDYFFDYWGQGTLVTVSS
VL: DIQMTQSPSSLSASVGDRVTITCRASENIYGALNWYQQKPGKAPKLLIYGATNLAEGVPSRFSGSGSGRDYTLTISSLQPEDFATYYCQNVLTTPWTFGQGTKLEIKR
For B7, the EC50 in test [1] was 0.3 nM. Further, the IC50, inhibition of IL-8 secretion, HT-29 + EL4-NC-LIGHT cells in test [2] came out at 0.05 nM.

B8: 2E08 chimeric IgG4 mAb (antibody, V domains shown)
VH: QVQMKESGAELVRPGVSVKISCKGSGYTFTDYAIHWVKQSHAKTLEWIGVISTYYGDASYNQKFKGKATMTVDKSSSTAYMELARLTSDDSAIYYCARSRGEYGNYDAMDYWGQGTSVTVSS
VL: DIVLTQSPASLAVSLGQRATISCKASQSVDYDGDSYMNWYQQKPGQPPKLLIYAASNLESGIPARFSGSGSGTDFTLNIHPVEEEDAATYYCQQSNEDPLTFGAGTKLELK
As for B8, the % of WT binding in test [3] came to 100%.

B9: 2B11 chimeric IgG4 mAb (antibody, V domains shown)
VH: EVQLVESGAELVRPGVSVKISCKGSGYTFTDYAIHWVKQSHAKSLEWIGVISTYYGDASYNQKFKGKATMTVDKSSSTAYMELARLTSEDSAIYYCARSRGEYGNYDAMDYWGQGTSVTVSS
VL: DIVLTQSPASLAVSLGQRATISCRASESVDSYGNSFMHWYQQKPGQPPKLLIYRASNLESGIPARFSGSGSRTDFTLTINPVEADDVATYYCQQSNEDPYTFGGGTKLEIK
In test [3], B9 registered a % of WT binding of 100%.

B10: 3B04 chimeric IgG4 mAb (antibody, V domains shown)
VH: QVQLQQPGAELVRPGASVTLSCKASGYTFTDYEMHWVKQTPVHGLEWIGEIDPETGDTAYSQKFKGKATLTADKSSSTAYMEFRSLTSEDSAVYYCSRETDYFFDYWGQGTTLTVSS
VL: DIQMTQTPASLSASVGETVTITCGASENIYGALNWYQRKQGKSPQLLIYGATNLADGMSSRFSGSGSGRQYSLKISSLHPDDFATYYCQNVLTTPWTFGGGTKLEIK
In test [3], B10 registered a % of WT binding of 100%.

B11: 3D12 chimeric IgG4 mAb (antibody, V domains shown)
VH: QVQLQQPGAELVRPGASVTLSCKASDYTFTDSEIHWVKQTPVHGLEWIGEIDPETGGTAYNQKFKGKATLTADKSSSTAYMELRSLTSEDSAVYYCSRETDYFFDYWGQGTTLTVSS
VL: DIQMTQSPASLSASVGETVTITCGASENIYGALNWYQRKQGKSPQLLIYGATNLADGMSSRFSGSGSGRQYSLKISSLHPDDVATYYCQNVLSTPWTFGGGTKLEIK
For the molecule B11, the % of WT binding in test [3] is 100%.

B12: 3A07 chimeric IgG4 mAb (antibody, V domains shown)
VH: QVQLQQSGAELVRPGAPVTLSCKASDYTFTDSEIHWVKQTPVHGLEWIGEIDPETGGTAYNQKFKGKATLTADKSSSTAYMELRSLTSEDSAVYYCSRETDYFFDYWGQGTTLTVSS
VL: ENVLTQSPAIMSASPGEKVTMTCSASSSVSYMYWYQQRPGSSPRLLIYDTSNLASGVPVRFSGSGSGTSYSLTISRMEAEDAATYYCQQWSSYPLTFGSGTKLEIK
As to B12, the % of WT binding in test [3] turned out to be 100%.

B13: 3C10 chimeric IgG4 mAb (antibody, V domains shown)
VH: EVQLQQSGAELVRPGASVTLSCKASDYTFTDSEIHWVKQTPVHGLEWIGEIDPETGGTAYNQKFKGKATLTADKSSSTAYMELRSLTSEDSAVYYCSRETDYFFDYWGQGTTLTVSS
VL: DVVMTQTPAIMSASPGEKVTMTCSASSSVSYMYWYQQKPGSSPRLLIYDTSNLASGVPVRFSGSGSGTSYSLTISRMEAEDAATYYCQQWSSYPLTFGAGTKLELK
In test [3], B13 gave a % of WT binding of 100%.

As a reminder, the EC50 is the concentration giving half of the maximal effect.
